Experiment [1] can be described thus: UV-VIS screening of binding and demetallation of Ni(II)-protoporphyrin (IX). It is filed as biochemical. The note with it: 50 μM porphyrin, 24 hrs, room temperature. As for the experimental part:
(§1) Three nickel- and one vanadium-containing model porphyrins (Ni(II)-protoporphyrin (IX); Ni(II)-meso-tetra-(4-carboxyphenyl) porphine; Ni(II)-meso-tetra-(N-methyl-4-pyridyl) porphine tetrachloride; & VO-meso-tetra-(N-methyl-4-pyridyl) porphine tetrachloride) were chosen as test substrates for the eight representative NBPs. […] The proteins' nickel- and vanadium-binding capabilities were assayed in a single phase, aqueous environment to eliminate mass transfer limitations that occur between multiple phases and stressful non-aqueous to conditions that may change protein structure and/or inhibit function. This approach minimizes false-negative results to maximize the number of potential protein candidates that can be identified.
A shift in the wavelength of maximal absorbance, commonly referred to as the “Soret band,” indicates a change in porphyrin conformation or a protein-porphyrin interaction.
(§2) To prepare crude protein, aliquots were thawed on ice and diluted 4-fold with protein assay buffer (PAB). To isolate purified nickel-binding proteins, protein aliquots were thawed on ice and proteins of interest were purified by HIS-tag-Ni-NTA column affinity followed by size exclusion chromatography with PD-10 desalting columns. Purified protein was eluted in PAB, collected in the first 2 mL PD-10 column flow-through fraction. Relative to the initial protein concentration, samples were diluted 4-fold to parallel crude protein samples.
(§3) Amber tubes were used for all assays to protect samples from light. Crude and purified protein samples were combined with porphyrin substrates, to achieve final concentrations in Table 3, and total assay volumes were raised to 10 mL with Tris buffer. Absorbance of a 2.4 mL sample was measured in a 1 cm quartz cuvette, at room temperature, 1 nm resolution, and 0.7 sec. integration time on an Evolution201® UV-VIS spectrophotometer with Thermo INSIGHT® software. Samples were incubated for 24 hrs. at room temperature and 75 RPM and their final UV-VIS absorbance spectra was measured. An absorbance baseline was collected using Tris buffer at the beginning of each time point and 1% error was observed between technical replicates.
(§4) Porphyrin Demetallation Calculation was calculated according to the formula (EVf−EXPf)÷EVo=% specific demetallation.

The conditions of experiment [2]: cited from earlier work.
Experiment [3] is described as follows: UV-VIS screening of binding and demetallation of Ni(II)-meso-tetra-(4-carboxyphenyl) porphine. It is filed as biochemical. The following applies: 10 μM porphyrin, 24 hrs. The method, then: as §1
UV-VIS spectroscopy was used for initial screening of protein activity against numerous model compounds because each model porphyrin has a characteristic UV-VIS absorbance spectrum. A shift in the wavelength of maximal absorbance, commonly referred to as the “Soret band,” indicates a change in porphyrin conformation or a protein-porphyrin interaction.
as §2
as §3, with “replicates. Crude, empty pET28b vector (EV) strain lysate protein and PAB only controls were run in parallel with experimental samples (EXP) for each porphyrin.” for “replicates.”
as §4

For experiment [4] the following is noted: selective, repetitive treatment; cited from earlier work.
The nature of experiment [5]: UV-VIS screening of binding and demetallation of VO-meso-tetra-(N-methyl-4-pyridyl) porphine tetrachloride. In kind it is biochemical. The following applies: crude and purified protein, 10 μM porphyrin, 24 hrs. As for the experimental part: as §1, with “This approach minimizes false-negative results to maximize the number of potential protein candidates that can be identified.” left out
(§5) UV-VIS spectroscopy was used for initial screening of protein activity against numerous model compounds because each model porphyrin has a characteristic UV-VIS absorbance spectrum. A shift in the wavelength of maximal absorbance, commonly referred to as the “Soret band,” indicates a change in porphyrin conformation or a protein-porphyrin interaction. […]
(§6) Amber tubes were used for all assays to protect samples from light. […] Absorbance of a 2.4 mL sample was measured in a 1 cm quartz cuvette, at room temperature, 1 nm resolution, and 0.7 sec. integration time on an Evolution201® UV-VIS spectrophotometer with Thermo INSIGHT® software. Samples were incubated for 24 hrs. at room temperature and 75 RPM and their final UV-VIS absorbance spectra was measured. […]

The nature of experiment [6]: UV-VIS screening of binding and demetallation of Ni(II)-meso-tetra-(N-methyl-4-pyridyl) porphine tetrachloride. It is filed as biochemical. The following applies: crude and purified protein, 10 μM porphyrin, 24 hrs. As for the experimental part: as §1, with “This approach minimizes false-negative results to maximize the number of potential protein candidates that can be identified.” left out
as §5, §6

Where [7] appears, read: site (24-His rich N-terminus; His2 and Glu2; micromolar Kd sites).

Where two headings read alike, the source gives them in different places.

As for “Hpn: nickel storage protein from H. pylori, SEQ ID NO 8; very small, histidine rich (MAHHEEQHGGHHHHHHHTHHHHYHGGEHHHHHHSSHHEEGCCSTSDSHHQEEGCCHGHHE; listed as Helicobacter pylori)”, the “reduction of Ni(II)-protoporphyrin (IX) Soret band (specific demetallation)” value (“reduction of Ni(II)-protoporphyrin” below) in experiment [1] (crude protein lysate) is “did not affect the Soret band”. Also, the “affinities for nickel (II) ions” value in experiment [2] (short repeating motifs, reversible binding) is “micromolar”. In addition, in experiment [3] (crude lysate only), the “binding / demetallation (change of Soret band)” value is “did not affect the Soret band”.

B1: GloA: nickel metalloenzyme from E. coli, SEQ ID NO 6 (protein, listed as Helicobacter pylori)
chain: MDTPNKDDSIIRFSVSLQQNLLDELDNRIIKNGYSSRSELVRDMIREKLVEDNWAEDNPNDGSKIAVLVVIYDHHQRELNQRMIDIQHTSGTHVLCTTHIHMDGHNCLETIILKGNSLEIQRLQLEIGGLRGVKFAKLTKASSFEHNE
Take B1: the “reduction of Ni(II)-protoporphyrin” value in experiment [1] (crude protein lysate) was “little or no binding and demetallation”; in experiment [1] (purified protein) it was “little or no binding and demetallation”. Moreover, the “Ni-binding: Ni (II) ions bound” value in experiment [2] (setting [7]) is given as 2 Ni (II),. Moreover, the “binding / demetallation (change of Soret band)” value in experiment [3] (crude and purified protein) is “little or no binding and demetallation”.

B2: myoglobin conjugated to activated cellulose: myoglobin conjugated to activated cellulose, reported by Smith et al. (conjugate, UniProt P68082 2-154, looked up)
Myoglobin: GLSDGEWQQVLNVWGKVEADIAGHGQEVLIRLFTGHPETLEKFDKFKHLKTEAEMKASEDLKKHGTVVLTALGGILKKKGHHEAELKPLAQSHATKHKIPIKYLEFISDAIIHVLHSKHPGDFGADAQGAMTKALELFRNDIAAKYKELGFQG
modifications: conjugated to activated cellulose
As for B2, the “removal of V, Ni porphyrins” value in experiment [4] is given as “up to 22%”.

B3: SlyD: nickel chaperone from E. coli, SEQ ID NO 4 (protein, listed as Escherichia coli)
chain: MKVAKDLVVSLAYQVRTEDGVLVDESPVSAPLDYLHGHGSLISGLETALEGHEVGDKFDVAVGANDAYGQYDENLVQRVPKDVFMGVDELQVGMRFLAETDQGPVPVEITAVEDDHVVVDGNHMLAGQNLKFNVEVVAIREATEEELAHGHVHGAHDHHHDHDHDGCCGGHGHDHGHEHGGEGCCGGKGNGGCGCH
As to B3, the “reduction of Ni(II)-protoporphyrin” value is given as 12% in experiment [1] (crude protein lysate) and “no change was observed” in experiment [1] (purified protein). Moreover, the “Kd of Ni-binding” value in experiment [2] (C-terminal metal-binding domain (MBD)) is “nanomolar Kd”. The “binding / demetallation (change of Soret band)” value in experiment [3] (crude and purified protein) was “only minimal changes to the Soret band were observed”.

B4: HypA: nickel chaperone from H. pylori, SEQ ID NO 1, His-tagged, expressed in E. coli (protein, listed as Bradyrhizobium japonicum)
chain: MCTVCGCSDGKASIEHAHDHHHDHGHDHDHGHDGHHHHHHGHDQDHHHHHDHAHGDAGLLDCGANPAGQKITGMSSDRIIQVERDILGKNDRLAADNRARFRADEVLAFNLVSSPGAGKTSLLVRAVSELKDSFAIGVIEGDQQTSNDAERIRATGVPAIQVNTGKGCHLDAAMVGEAYDRLPWLNGGLLFIENVGNLVCPAAFDLGEACKIVVFSTTEGEDKPLKYPDMFAASSLMLINKIDLASVLDFDLARTIEYARRVNPKIEVLTLSARTGEGFAAFYAWIRKRMAATTPAAMTAAE
modifications: His-tag
As to B4, the “reduction of Ni(II)-protoporphyrin” value is recorded as “did not display Ni(II)-protoporphyrin (IX) binding or demetallation capabilities” in experiment [1] (crude protein lysate) and 59% in experiment [1] (purified protein). In experiment [2] (per dimer), the “Ni-binding: Ni (II) ions bound” value is recorded as 2 Ni (II) ions per Ni (II) per dimer. The “binding / demetallation (change of Soret band)” value in experiment [3] (crude and purified protein) was “neither binding nor demetallation was observed”.

B5: NikR: metalloregulator from H. pylori, SEQ ID NO 7 (protein, listed as Escherichia coli)
chain: MRLLHTMLRVGDLQRSIDFYTKVLGMKLLRTSENPEYKYSLAFVGYGPETEEAVIELTYNWGVDKYELGTAYGHIALSVDNAAEACEKIRQNGGNVTREAGPVKGGTTVIAFVEDPDGYKIELIEEKDAGRGLGN
As to B5, the “reduction of Ni(II)-protoporphyrin” value is “remained unchanged” in experiment [1] (crude protein lysate) and 56% in experiment [1] (purified protein). In addition, the “Kd of Ni-binding” value is listed as “nanomolar Kd” in experiment [2] (4 Ni (II) per complex, coordinated by His88, His99, His101 & Cys107) and “micromolar Kd” in experiment [2] (up to 10 Ni (II) sites). The “Ni-binding: Ni (II) ions bound” value in experiment [2] (per complex, nanomolar Kd sites) is listed as 4 Ni (II) per Ni (II) per complex. Also, the “binding / demetallation (change of Soret band)” value in experiment [3] (crude and purified protein) is given as “Neither binding to nor demetallation was observed”.

B6: B. japonicum HypB: nickel chaperone HypB from B. japonicum, SEQ ID NO 3 (protein, listed as Helicobacter pylori)
chain: MHEYSVVSSLIALCEEHAKKNQAHKIERVVVGIGERSAMDKSLFVSAFETFREESLVCKDAVLDIVDEKVELECKDCSHVFKPNALDYGVCEKCHSKNVVITQGNEMRLLSLEMLAE
Consider B6, for which the “reduction of Ni(II)-protoporphyrin” value was determined as 29% in experiment [1] (crude protein lysate) and 99% in experiment [1] (purified protein). Moreover, the “Ni-binding: Ni (II) ions bound” value in experiment [2] (setting [7]) is 9 Ni (II) on 24-. The “binding / demetallation (change of Soret band)” value in experiment [5] is given as “Neither binding to nor demetallation of these substrates was observed”; in experiment [6], “Neither binding to nor demetallation of these substrates was observed”; in experiment [3] (crude and purified protein) it was “Neither binding nor demetallation was observed”.

B7: UreE: nickel chaperone from E. aerogenes, SEQ ID NO 5 (protein)
chain: MLYLTQRLEIPAAATASVTLPIDVRVKSRVKVTLNDGRDAGLLLPRGLLLRGGDVLSNEEGTEFVQVIAADEEVSVVRCDDPFMLAKACYHLGNRHVPLQIMPGELRYHHDHVLDDMLRQFGLTVTFGQLPFEPEAGAYASESHGHHHAHHDHHAHSH
modifications: Enterobacter aerogenes
B7: the “reduction of Ni(II)-protoporphyrin” value is on record as “remained unchanged” in experiment [1] (crude protein lysate) and 17% in experiment [1] (purified protein). Further, the “Ni-binding: Ni (II) ions bound” value in experiment [2] (per dimer) is 6 Ni (II) per Ni (II) per dimer. Besides, the “binding / demetallation (change of Soret band)” value in experiment [3] (crude and purified protein) was “Neither binding nor demetallation”.

B8: E. coli HypB: nickel chaperone HypB from E. coli, SEQ ID NO 2 (protein, listed as Escherichia coli)
chain: MCTTCGCGEGNLYIEGDEHNPHSAFRSAPFAPAARPKMKITGIKAPEFTPSQTEEGDLHYGHGEAGTHAPGMSQRRMLEVEIDVLDKNNRLAERNRARFAARKQLVLNLVSSPGSGKTTLLTETLMRLKDSVPCAVIEGDQQTVNDAARIRATGTPAIQVNTGKGCHLDAQMIADAAPRLPLDDNGILFIENVGNLVCPASFDLGEKHKVAVLSVTEGEDKPLKYPHMFAAASLMLLNKVDLLPYLNFDVEKCIACAREVNPEIEIILISATSGEGMDQWLNWLETQRCA
On to B8, for which the “reduction of Ni(II)-protoporphyrin” value in experiment [1] (crude protein lysate) was 17%; in experiment [1] (purified protein), 83%. Moreover, the “Kd of Ni-binding” value in experiment [2] (N-terminal Ni binding domain) is given as “has micromolar”; in experiment [2] (SEQ ID NO: 12 binding sites in the C-terminal domain), “subpicomolar”. Also, the “Ni-binding: Ni (II) ions bound” value in experiment [2] (per monomer) was 2 Ni (II) ions per Ni (II) per monomer. In addition, the “binding / demetallation (change of Soret band)” value in experiment [3] (crude and purified protein) was “Neither binding nor demetallation was observed”.
